Substitutions are numbered along the chain they refer to.
B1: 01C05R3LS VHH Mono-Fc (Fc fusion)
chain: EVQLVESGGGLVQAGGSLRLSCAASGRTINTYVMGWFRQAPGKEREFVARIDWSGSSTDYADSVKGRFTISRDNAKNTVYLQMNSLKPEDTAVYYCAGSAYYSGYVTHRDFGSWGQGTLVTVSSSPAPELLGGPSVFLFPPKPKDTLMISRTPEVTCVVVDVSHEDPEVKFNWYVDGVEVHNAKTKPREEQYNSTYRVVSVLTVLHQDWLNGKEYKCKVSNKALPAPIEKTISKAKGQPREPQVYTKPPSREEMTKNQVSLSCLVKGFYPSDIAVEWESNGQPENNYKTTVPVLDSDGSFRLASYLTVDKSRWQQGNVFSCSVMHEALHNHYTQKSLSLSPGK
B2: 01B10R3LS VHH Mono-Fc (Fc fusion)
chain: B1 chain with E1Q, N30Y, T31G, L119Q
B3: 01H11R3LS VHH Mono-Fc (Fc fusion)
chain: B1 chain with E1Q, T31G, N77T, M83T, L119Q
B4: 01D07R3LS VHH Mono-Fc (Fc fusion)
chain: B1 chain with E1Q
B5: 01G09R2 VHH Mono-Fc (Fc fusion)
chain: B1 chain with V64A
B6: 01H05R3 VHH Mono-Fc (Fc fusion)
chain: QVQLVESGGGLVQAGGSLRLSCAASGRSLGFDTYGMAWFRQAPGKEREFVASIDWNGGSTYYADSMKGRFTISRDNAKNTVNLRMNSLKPDDTAVYYCAAARYYTSSTYFPANYWGQGTQVTVSSSPAPELLGGPSVFLFPPKPKDTLMISRTPEVTCVVVDVSHEDPEVKFNWYVDGVEVHNAKTKPREEQYNSTYRVVSVLTVLHQDWLNGKEYKCKVSNKALPAPIEKTISKAKGQPREPQVYTKPPSREEMTKNQVSLSCLVKGFYPSDIAVEWESNGQPENNYKTTVPVLDSDGSFRLASYLTVDKSRWQQGNVFSCSVMHEALHNHYTQKSLSLSPGK
B7: 03C10R3 VHH Mono-Fc (Fc fusion)
chain: B6 chain with A14R, G35A, A37G, S59N, M66V, V95A, S107G, Q117R, Q120L
B8: 03H05R3 VHH Mono-Fc (Fc fusion)
chain: QVQLVESGGGLVQAGGSLSLSCAASGRSLSFDTYAMSWFRQAPGKEREFVASIDWNGGSTSYADSMKGRFTISRDNAKNTVNLRIRSLKPDDTAVYFCASARYYIGGTYFPANYWGQGTQVTVSSSPAPELLGGPSVFLFPPKPKDTLMISRTPEVTCVVVDVSHEDPEVKFNWYVDGVEVHNAKTKPREEQYNSTYRVVSVLTVLHQDWLNGKEYKCKVSNKALPAPIEKTISKAKGQPREPQVYTKPPSREEMTKNQVSLSCLVKGFYPSDIAVEWESNGQPENNYKTTVPVLDSDGSFRLASYLTVDKSRWQQGNVFSCSVMHEALHNHYTQKSLSLSPGK
B9: 01D08R3 VHH Mono-Fc (Fc fusion)
chain: QVQLVESGGGLVQAGDSLRLSCAASGRTSSLYNMGWFRQAPGQEREFVAAIHWGGGRTYYADSVKGRFTISRDNAKNTVYLQMNSLEPGDTANYYCAARRAPELLDDYKQKPEEIGAYHYWGQGTQVTVSSSPAPELLGGPSVFLFPPKPKDTLMISRTPEVTCVVVDVSHEDPEVKFNWYVDGVEVHNAKTKPREEQYNSTYRVVSVLTVLHQDWLNGKEYKCKVSNKALPAPIEKTISKAKGQPREPQVYTKPPSREEMTKNQVSLSCLVKGFYPSDIAVEWESNGQPENNYKTTVPVLDSDGSFRLASYLTVDKSRWQQGNVFSCSVMHEALHNHYTQKSLSLSPGK
B10: 01F01R2 VHH Mono-Fc (Fc fusion)
chain: QVQLVESGGGLVQAGGSLRLSCAASGRTFSSNPMGWFRQAPGKEREFVAAISWSGGGTYYADSVKGRFTISRDNAKNTVTLQMNSLKPEDTAVYYCASRDYSDPISLWVEDREYDYWGQGTQVTVSSSPAPELLGGPSVFLFPPKPKDTLMISRTPEVTCVVVDVSHEDPEVKFNWYVDGVEVHNAKTKPREEQYNSTYRVVSVLTVLHQDWLNGKEYKCKVSNKALPAPIEKTISKAKGQPREPQVYTKPPSREEMTKNQVSLSCLVKGFYPSDIAVEWESNGQPENNYKTTVPVLDSDGSFRLASYLTVDKSRWQQGNVFSCSVMHEALHNHYTQKSLSLSPGK
B11: 01A09R2 VHH Mono-Fc (Fc fusion)
chain: B10 chain with Q1E
B12: 03D05R3 VHH Mono-Fc (Fc fusion)
chain: B10 chain with Q1E, D111G, Q122L
B13: 03B07R3 VHH Mono-Fc (Fc fusion)
chain: B10 chain with Q122L
B14: 03D09R3 VHH Mono-Fc (Fc fusion)
chain: QVQLVESGGGLVQAGGSLRLSCAASGRTVSSVAMGWFRQAPGKEREFVATISWTGGSTYYADSVKGRFTISRDNAKNTAYLQMNSLKPEDTAVYYCAAGYPADPIALMTLRYEYDYWGQGTLVTVSSSPAPELLGGPSVFLFPPKPKDTLMISRTPEVTCVVVDVSHEDPEVKFNWYVDGVEVHNAKTKPREEQYNSTYRVVSVLTVLHQDWLNGKEYKCKVSNKALPAPIEKTISKAKGQPREPQVYTKPPSREEMTKNQVSLSCLVKGFYPSDIAVEWESNGQPENNYKTTVPVLDSDGSFRLASYLTVDKSRWQQGNVFSCSVMHEALHNHYTQKSLSLSPGK
B15: 02G03R3 VHH Mono-Fc (Fc fusion)
chain: EVQLVESGGGLVQAGGSLRLSCAASGMPDNIFSIKTMGWYRQAPGKERELVAAITSGGSTNYGDSVKDRFTISRDRIENTVNLEMNNLKPEDTAVYTCHADLTYIRFQDMEYWGKGTQVTVSSSPAPELLGGPSVFLFPPKPKDTLMISRTPEVTCVVVDVSHEDPEVKFNWYVDGVEVHNAKTKPREEQYNSTYRVVSVLTVLHQDWLNGKEYKCKVSNKALPAPIEKTISKAKGQPREPQVYTKPPSREEMTKNQVSLSCLVKGFYPSDIAVEWESNGQPENNYKTTVPVLDSDGSFRLASYLTVDKSRWQQGNVFSCSVMHEALHNHYTQKSLSLSPGK
B16: 03G05R3 VHH Mono-Fc (Fc fusion)
chain: EVQLVESGGGLVQAGDSLRLSCAASGRALSFNTYAMAWFRQAPGKEREFVASITYNGGSTYYADSVKGRFTVTRDNGKNTVTLRMNSLKPDDTAVYYCASAQYWRSGTSFPANYWGQGTQVTVSSSPAPELLGGPSVFLFPPKPKDTLMISRTPEVTCVVVDVSHEDPEVKFNWYVDGVEVHNAKTKPREEQYNSTYRVVSVLTVLHQDWLNGKEYKCKVSNKALPAPIEKTISKAKGQPREPQVYTKPPSREEMTKNQVSLSCLVKGFYPSDIAVEWESNGQPENNYKTTVPVLDSDGSFRLASYLTVDKSRWQQGNVFSCSVMHEALHNHYTQKSLSLSPGK
B17: 01D06R2 VHH Mono-Fc (Fc fusion)
chain: QVQLVESGGGLVQAGDSLRLSCAASGRTLSFDTYAMAWFRQAPGKEREFVASIDWNGVNTYYADSVKGRFTVTRDNTKNTVTLRMNSLKTDDTAVYYCAAAQYYRSGTSFPANSWGQGTQVTVSSSPAPELLGGPSVFLFPPKPKDTLMISRTPEVTCVVVDVSHEDPEVKFNWYVDGVEVHNAKTKPREEQYNSTYRVVSVLTVLHQDWLNGKEYKCKVSNKALPAPIEKTISKAKGQPREPQVYTKPPSREEMTKNQVSLSCLVKGFYPSDIAVEWESNGQPENNYKTTVPVLDSDGSFRLASYLTVDKSRWQQGNVFSCSVMHEALHNHYTQKSLSLSPGK
B18: 01F04R3 VHH Mono-Fc (Fc fusion)
chain: B16 chain with E1Q, K67R, N76S, Q120L
B19: 01C04R3 VHH Mono-Fc (Fc fusion)
chain: B16 chain with E1Q, N79D, Q120L
B20: 01E10R3 VHH Mono-Fc (Fc fusion)
chain: QVQLVESGGGLVQSGGSLRLSCAASGRTFSDYAMGWFRQAPGKERELVAAITWNGGSTYYADSVKGRFTISRDNAKNTVDLQMNSLKPEDTAVYYCAADPLNSDSAGTYDYWGQGTLVTVSSSPAPELLGGPSVFLFPPKPKDTLMISRTPEVTCVVVDVSHEDPEVKFNWYVDGVEVHNAKTKPREEQYNSTYRVVSVLTVLHQDWLNGKEYKCKVSNKALPAPIEKTISKAKGQPREPQVYTKPPSREEMTKNQVSLSCLVKGFYPSDIAVEWESNGQPENNYKTTVPVLDSDGSFRLASYLTVDKSRWQQGNVFSCSVMHEALHNHYTQKSLSLSPGK

What follows are binders tested against T1, cynomolgus monkey pIgR extracellular domain (cynomolgus monkey, UniProt A0A2K5WMU9 19-638) (assay: SPR, VHH captured by anti-Fc, ECD analyte).
T1 construct: extracellular domain
T1 sequence (A0A2K5WMU9 entry or part of it): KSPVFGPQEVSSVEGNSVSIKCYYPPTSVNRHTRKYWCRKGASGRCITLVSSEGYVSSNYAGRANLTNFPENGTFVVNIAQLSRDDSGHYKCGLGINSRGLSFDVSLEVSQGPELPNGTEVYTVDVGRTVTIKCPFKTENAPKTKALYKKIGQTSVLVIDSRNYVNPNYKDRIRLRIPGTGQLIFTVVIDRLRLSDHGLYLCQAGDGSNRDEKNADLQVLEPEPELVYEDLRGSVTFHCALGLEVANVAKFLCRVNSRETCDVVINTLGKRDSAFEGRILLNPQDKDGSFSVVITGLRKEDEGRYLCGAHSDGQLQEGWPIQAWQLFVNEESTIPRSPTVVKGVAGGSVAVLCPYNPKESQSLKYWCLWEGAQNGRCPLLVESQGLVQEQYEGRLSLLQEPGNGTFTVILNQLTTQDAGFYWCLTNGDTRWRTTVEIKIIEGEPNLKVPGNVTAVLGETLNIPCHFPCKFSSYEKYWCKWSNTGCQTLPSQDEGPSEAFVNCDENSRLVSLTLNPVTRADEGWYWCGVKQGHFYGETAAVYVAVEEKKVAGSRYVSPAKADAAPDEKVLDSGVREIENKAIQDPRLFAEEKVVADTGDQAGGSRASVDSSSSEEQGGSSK
Experimental: (§1) In an assay, two flow cells of the SPR were used, in which the flow cell 1 ran the buffer reference, and the flow cell 2 ran the analyte. […] The HBSP (GE) buffer was followed at a flow rate of 30 μL/min. Then, the VHHs were captured on the anti-human Fc protein surface at 0.5 ug/ml (˜200-300 RU) on the flow cell 2. The running buffer was changed to HBSP with 100 ug/ml BSA after the capture. Next, the pIgR extracellular domains were used as analyte and loaded in a series of concentrations, starting at 30 nM with further 3-fold dilution series.
(§2) The extracellular domains were prepared as follows: cynomolgus monkey and rat extracellular domains were produced and characterized in house; mouse and human pIgR extracellular domains were purchased from R&D Systems (Cat #2800-PG-050 & 2717-PG-050 respectively). The pIgR extracellular domains were injected from low to high concentration using a single-cycle kinetics method. The off-rate was monitored at 30 minutes after the last or highest concentration injection. The reference run was completed under the same conditions except that the pIgR injection was replaced by buffer injection.
(§3) The raw data were processed by subtracting two sets of reference data from the response data: (1) reference flow cell 1 subtracted from sample flow cell 2; and (2) buffer blank run subtracted from experimental run. The processed data at all concentrations for each VHH were globally fit to a 1:1 simple Langmuir binding model to extract estimates of the kinetic constants (kₒₙ, koff) and affinity constants (KD).
B1 showed a Kd of 84.9 nM.
For B2, the Kd was 192 nM.
With B3 the Kd was 252 nM.
Binder B4 has a Kd of 103 nM.
B5 was tested, and the Kd was 106 nM.
B6 gave a Kd of 406 nM.
B7 was tested, and the Kd was 17.5 nM.
B8 gave a Kd of 108 nM.
B9 showed a Kd of 448 nM.
B10 gave a Kd of 4.08 nM.
Binder B11 has a Kd of 4.02 nM.
In the case of B12, the Kd is reported as 4.59 nM.
With B13 the Kd was 4.26 nM.
In the case of B14, the Kd is reported as 0.004 nM.
In the case of B15, the Kd is reported as 3.99 nM.
With B16 the Kd was 30.1 nM.
B17 gave a Kd of 14.4 nM.
Binder B18 has a Kd of 30.9 nM.
Work on B19 yielded a Kd of 46.3 nM.
Binder B20 has a Kd of 23.2 nM.

Each binder was assayed against T2, human pIgR extracellular domain (ECD) (human, UniProt P01833 19-638) (assay: SPR, VHH captured by anti-Fc, ECD analyte).
T2 construct: Bought from R&D Systems (Cat 2717-PG-050); also called hpIgR ECD
T2 sequence (P01833 other isoform, or with tags, fused parts or gaps): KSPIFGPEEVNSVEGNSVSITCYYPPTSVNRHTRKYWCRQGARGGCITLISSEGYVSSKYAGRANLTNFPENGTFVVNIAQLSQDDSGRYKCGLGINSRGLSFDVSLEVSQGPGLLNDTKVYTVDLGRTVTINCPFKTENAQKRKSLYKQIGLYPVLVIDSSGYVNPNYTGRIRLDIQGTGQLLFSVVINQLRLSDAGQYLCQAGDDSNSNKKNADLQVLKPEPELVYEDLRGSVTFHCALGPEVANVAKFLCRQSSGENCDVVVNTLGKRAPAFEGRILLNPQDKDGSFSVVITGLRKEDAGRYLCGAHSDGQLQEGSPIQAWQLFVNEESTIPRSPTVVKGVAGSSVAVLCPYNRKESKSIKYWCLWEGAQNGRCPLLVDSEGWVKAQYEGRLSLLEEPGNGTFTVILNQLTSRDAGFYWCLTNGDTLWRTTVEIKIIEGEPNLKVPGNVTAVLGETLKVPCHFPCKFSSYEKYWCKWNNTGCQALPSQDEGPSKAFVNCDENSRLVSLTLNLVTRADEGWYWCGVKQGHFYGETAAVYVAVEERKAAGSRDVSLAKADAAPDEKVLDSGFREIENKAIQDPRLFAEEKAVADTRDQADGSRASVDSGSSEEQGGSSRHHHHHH
Experimental: as §1, §2, §3
With B1 the Kd was 5.77 nM.
Binder B2 has a Kd of 38 nM.
B3 was tested, and the Kd was 8.42 nM.
Work on B4 yielded a Kd of 9.78 nM.
B5 showed a Kd of 6.58 nM.
B6 showed a Kd of 7.54 nM.
Work on B7 yielded a Kd of 1.67 nM.
B8 gave a Kd of 2.93 nM.
Work on B9 yielded a Kd of 0.195 nM.
For B10, the Kd was 2.13 nM.
With B11 the Kd was 2.14 nM.
B12 showed a Kd of 2.14 nM.
B13 was tested, and the Kd was 2.33 nM.
Work on B14 yielded a Kd of 0.072 nM.
With B15 the Kd was 1.48 nM.
In the case of B16, the Kd is reported as 3.7 nM.
For B17, the Kd was 1.44 nM.
Binder B18 has a Kd of 5.92 nM.
B19 showed a Kd of 3.09 nM.
Binder B20 has a Kd of 1.39 nM.
